According to paper PMC3781937 (Molecular microbiology, 2013):

T1: YaaT (His6-SUMO tag removed, in the co-purified complex) (Bacillus subtilis, UniProt P37541 1-275)
T1 sequence (looked up): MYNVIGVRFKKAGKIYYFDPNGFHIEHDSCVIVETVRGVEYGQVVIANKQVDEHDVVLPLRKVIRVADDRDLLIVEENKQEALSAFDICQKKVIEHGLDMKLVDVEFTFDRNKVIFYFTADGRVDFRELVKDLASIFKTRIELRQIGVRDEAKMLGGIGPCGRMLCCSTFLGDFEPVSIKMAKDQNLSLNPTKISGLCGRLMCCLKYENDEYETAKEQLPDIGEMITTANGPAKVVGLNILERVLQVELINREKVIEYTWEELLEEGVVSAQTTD

T2: T18-Spo0F (Bacillus subtilis, UniProt P06628 1-124)
T2 sequence (looked up): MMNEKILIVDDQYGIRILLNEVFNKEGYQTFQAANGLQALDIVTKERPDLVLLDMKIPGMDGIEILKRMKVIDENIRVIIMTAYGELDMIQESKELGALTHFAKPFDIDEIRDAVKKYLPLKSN

B1: YlbF (GST tag removed, in the co-purified complex) (natural protein, Bacillus subtilis, UniProt O34412 1-149, looked up)
chain: MYATMESVRLQSEAQQLAEMILQSETAENYRNCYKRLQEDEEAGRIIRSFIKIKEQYEDVQRFGKYHPDYREISRKMREIKRELDLNDKVADFKRAENELQSILDEVSVEIGTAVSEHVKVPTGNPYFDGLSSCGGGCGSGGSCGCKVS
B2: YmcA (GST tag removed) (natural protein, Bacillus subtilis, UniProt O31779 1-143, looked up)
chain: MTLYSKKDIVQQARNLAKMISETEEVDFFKRAEAQINENDKVSTIVNQIKALQKQAVNLKHYEKHEALKQVEAKIDALQEELEEIPVIQEFRDSQMEVNDLLQLVAHTISNQVTNEIITSTGGDLLKGETGSKVKHSNNSCSL
B3: YmcA-T25 (natural protein, Bacillus subtilis, UniProt O31779 1-143, looked up)
chain: B2 chain

Columns and labels:
[1] = target: T1, YaaT (His6-SUMO tag removed, in the …); experiment: SEC
[2] = target: B1; experiment: SEC
two-hybrid = target: the molecule itself; experiment: two-hybrid
T18-Spo0F = target: T2, T18-Spo0F; experiment: two-hybrid

Binder: B1
- binding result [1]: binds

Binder: B2
- stoichiometry N [2]: 2.2 fold
- stoichiometry N [1]: 2.2 fold

Binder: B3
- β-galactosidase activity, ratio above the T18–T25 negative control (two-hybrid): 48.3 ratio above the T18–T25 negative control
- β-galactosidase activity, ratio above the T18–T25 negative control (T18-Spo0F): 11.3 ratio above the T18–T25 negative control
